# Test results from article PMC3582566.
# Target: S. mutans VicK (aa31-450), entire intracellular region (S. mutans)
# Experiment: SEC-MALS; VicK at ~4 mg/ml resolved on a size exclusion column (Shodex KW-802.5) in 50 mM HEPES (pH 7.0), 200 mM Na2SO4 at 25°C; DAWN HELEOS II laser photometer; BSA as control
substance,measurement,value
"S. mutans VicK (aa31-450), entire intracellular region (domain or fragment)",stoichiometry N,2
